Bridges are numbered along the chain shown (N, C = ends). Primed or numbered codes have the meaning given here. Side-chain parts run from the residue outwards. [ ]: non-standard residue; d: D form. 8x polyethylene glycol‑amino = O-(8x polyethylene glycol-amino)-tyrosine, SITE 45; 9x polyethylene glycol‑azido = O-(9x polyethylene glycol-azido)-tyrosine, SITE 42; Ygp(4) = Tyr with amino-capped PEG8 (O-(8x polyethylene glycol-amino)-tyrosine); Yn3(4) = Tyr with azide-capped PEG9 (O-(9x polyethylene glycol-azido)-tyrosine); Ygp(8) = Tyr, amino-capped PEG8 (O-(8x polyethylene glycol-amino)-tyrosine); Yn3(8) = Tyr, azide-capped PEG9 (O-(9x polyethylene glycol-azido)-tyrosine); Ygp = O-(8x polyethylene glycol-amino)-tyrosine (Tyr, amino-capped PEG8); Yn3 = O-(9x polyethylene glycol-azido)-tyrosine (Tyr, azide-capped PEG9); Ygp″ = O-(8x polyethylene glycol-amino)-tyrosine; Yn3″ = O-(9x polyethylene glycol-azido)-tyrosine; PEG4′ = 4x polyethylene glycol; PEG9′ = 9x polyethylene glycol; hSer = N[C@@H](CCO)C(=O)O; Nle = CCCC[C@H](N)C(=O)O
T1: IL-2 receptor βγ complex (human, UniProt P14784 27-551; P31785 23-369)
T1 sequence (looked up) 1: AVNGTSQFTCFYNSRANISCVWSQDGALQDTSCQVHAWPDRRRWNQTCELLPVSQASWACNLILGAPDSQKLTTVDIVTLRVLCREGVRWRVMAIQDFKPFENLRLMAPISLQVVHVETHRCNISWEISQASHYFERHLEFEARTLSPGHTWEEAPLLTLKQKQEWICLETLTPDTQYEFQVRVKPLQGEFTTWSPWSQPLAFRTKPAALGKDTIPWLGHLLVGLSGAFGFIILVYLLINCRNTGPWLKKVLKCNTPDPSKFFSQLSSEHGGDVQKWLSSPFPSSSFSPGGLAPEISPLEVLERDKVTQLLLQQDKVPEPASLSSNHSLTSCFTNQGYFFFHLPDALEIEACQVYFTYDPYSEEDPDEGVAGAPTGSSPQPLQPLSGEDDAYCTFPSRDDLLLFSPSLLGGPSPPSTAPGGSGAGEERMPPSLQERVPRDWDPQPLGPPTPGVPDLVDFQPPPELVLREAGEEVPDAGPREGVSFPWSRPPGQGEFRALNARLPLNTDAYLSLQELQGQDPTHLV
T1 sequence (looked up) 2: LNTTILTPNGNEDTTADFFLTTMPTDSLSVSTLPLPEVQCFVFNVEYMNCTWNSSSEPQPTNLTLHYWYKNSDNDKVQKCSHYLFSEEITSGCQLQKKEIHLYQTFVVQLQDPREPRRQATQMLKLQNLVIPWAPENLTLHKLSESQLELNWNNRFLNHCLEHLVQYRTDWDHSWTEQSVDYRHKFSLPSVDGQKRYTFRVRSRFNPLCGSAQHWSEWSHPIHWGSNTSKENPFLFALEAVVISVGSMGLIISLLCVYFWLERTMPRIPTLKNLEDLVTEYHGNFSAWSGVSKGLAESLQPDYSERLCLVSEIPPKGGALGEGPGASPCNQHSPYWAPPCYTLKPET

T2: IL-2Rβγ on HEK-Blue IL-2Rβγ reporter cells (InvivoGen) (UniProt P14784 27-551; P31785 23-369, limits assumed)
T2 sequence (looked up) 1: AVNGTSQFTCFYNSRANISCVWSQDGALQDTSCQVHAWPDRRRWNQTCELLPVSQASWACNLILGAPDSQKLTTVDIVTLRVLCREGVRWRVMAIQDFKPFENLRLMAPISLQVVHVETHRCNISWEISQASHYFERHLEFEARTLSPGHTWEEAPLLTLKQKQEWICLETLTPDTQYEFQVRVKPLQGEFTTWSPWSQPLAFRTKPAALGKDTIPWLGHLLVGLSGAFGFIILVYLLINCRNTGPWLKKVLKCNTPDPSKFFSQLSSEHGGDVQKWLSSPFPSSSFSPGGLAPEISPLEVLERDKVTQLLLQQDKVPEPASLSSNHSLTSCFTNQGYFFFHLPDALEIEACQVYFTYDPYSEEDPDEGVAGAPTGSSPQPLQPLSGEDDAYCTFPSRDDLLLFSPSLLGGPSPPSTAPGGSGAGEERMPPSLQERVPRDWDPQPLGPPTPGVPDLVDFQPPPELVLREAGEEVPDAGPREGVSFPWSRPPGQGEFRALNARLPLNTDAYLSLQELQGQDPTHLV
T2 sequence (looked up) 2: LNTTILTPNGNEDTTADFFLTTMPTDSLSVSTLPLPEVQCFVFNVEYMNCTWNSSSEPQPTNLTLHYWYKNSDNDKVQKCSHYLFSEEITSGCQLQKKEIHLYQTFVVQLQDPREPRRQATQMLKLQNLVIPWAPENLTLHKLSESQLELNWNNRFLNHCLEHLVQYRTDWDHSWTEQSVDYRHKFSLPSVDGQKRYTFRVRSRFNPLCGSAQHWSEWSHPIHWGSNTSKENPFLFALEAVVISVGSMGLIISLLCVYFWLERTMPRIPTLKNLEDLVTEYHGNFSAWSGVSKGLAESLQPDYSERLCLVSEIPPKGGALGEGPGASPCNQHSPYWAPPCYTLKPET


Target: T1, IL-2 receptor βγ complex
Assay: cell-based or functional assay

| Average EC50, pSTAT5 Assay in NK cells [nM] | Binder |
| --- | --- |
| 12.2 | CMP-317, MMP2 cleaved molecule (ligand, also: A1 attached to another sequence via 4x polyethylene glycol, E23 side chain attached to another sequence, m119 after MMP2 cleavage, product not given here as a sequence) APTSSSTKKTQLQLEHLLLDLQEILNGINNYKNPKLTR[Nle]L[hSer]Y(9x polyethylene glycol‑azido)KFY(8x polyethylene glycol‑amino)[Nle]PKKATELKHLQCLEEELKPLEEVL[hSer]LAQSKNFHLRPRDLISNINVIVLELKGSETTF[hSer]CEYADETATIVEFLNRWITFSQSIISTLT |
| 7.72 | CMP-319 (ligand, lactam N-33; ends not checked) RGRRVANLVGAPTSSSTKKTQLQLEHLLLDLQEILNGINNYKNPKLTR[Nle]L[hSer][Yn3]KF[Ygp][Nle]PKKATELKHLQCLEEELKPLEEVL[hSer]LAQSKNFHLRPRDLISNINVIVLELKGSETTF[hSer]CEYADETATIVEFLNRWITFSQSIISTLT |
| 0.13 | CMP-323 (ligand, not fully specified; ends and bridges not checked) LVGAPTSSSTKKTQLQLEHLLLDLQE([Arg-Gly-Arg])ILNGINNYKNPKLTR[Nle]L[hSer][Yn3″]KF[Ygp″][Nle]PKKATELKHLQCLEEELKPLEEVL[hSer]LAQSKNFHLRPRDLISNINVIVLELKGSETTF[hSer]CEYADETATIVEFLNRWITFSQSIISTLT |
| 34.1 | CMP-317 (ligand, bridge N-31; not fully specified (bridges); ends not checked) GSGSGSG[PEG4′]APTSSSTKKTQLQLEHLLLDLQEILNGINNYKNPKLTR[Nle]L[hSer][Yn3]KF[Ygp][Nle]PKKATELKHLQCLEEELKPLEEVL[hSer]LAQSKNFHLRPRDLISNINVIVLELKGSETTF[hSer]CEYADETATIVEFLNRWITFSQSIISTLT |
| 37.4 | CMP-318 (ligand, lactam N-32; ends not checked) SGRVANLVGAPTSSSTKKTQLQLEHLLLDLQEILNGINNYKNPKLTR[Nle]L[hSer][Yn3]KF[Ygp][Nle]PKKATELKHLQCLEEELKPLEEVL[hSer]LAQSKNFHLRPRDLISNINVIVLELKGSETTF[hSer]CEYADETATIVEFLNRWITFSQSIISTLT |
| 0.38 | CMP-324 (ligand, not fully specified (residue 26); ends and bridges not checked; also: Glu26 side chain attached to another sequence (short peptide)) LVGAPTSSSTKKTQLQLEHLLLDLQEILNGINNYKNPKLTR[Nle]L[hSer][Yn3″]KF[Ygp″][Nle]PKKATELKHLQCLEEELKPLEEVL[hSer]LAQSKNFHLRPRDLISNINVIVLELKGSETTF[hSer]CEYADETATIVEFLNRWITFSQSIISTLT |
| 0.18 | CMP-325 (ligand, not fully specified; ends and bridges not checked) RVANLVGAPTSSSTKKTQLQLEHLLLDLQE([Arg-Gly-Arg])ILNGINNYKNPKLTR[Nle]L[hSer][Yn3″]KF[Ygp″][Nle]PKKATELKHLQCLEEELKPLEEVL[hSer]LAQSKNFHLRPRDLISNINVIVLELKGSETTF[hSer]CEYADETATIVEFLNRWITFSQSIISTLT |
| 13.2 | CMP-320 (ligand, lactam N-34) SGRVAPQPLVDAPTSSSTKKTQLQLEHLLLDLQEILNGINNYKNPKLTR[Nle]L[hSer][Yn3(8)]KF[Ygp(8)][Nle]PKKATELKHLQCLEEELKPLEEVL[hSer]LAQSKNFHLRPRDLISNINVIVLELKGSETTF[hSer]CEYADETATIVEFLNRWITFSQSIISTLT |
| 2.94 | CMP-321, MMP2 cleaved molecule (ligand, lactam N-32; also: MMP2 cleaved, cleavage site and product not given here) SGRVQPLVDAPTSSSTKKTQLQLEHLLLDLQEILNGINNYKNPKLTR[Nle]L[hSer][Yn3(8)]KF[Ygp(8)][Nle]PKKATELKHLQCLEEELKPLEEVL[hSer]LAQSKNFHLRPRDLISNINVIVLELKGSETTF[hSer]CEYADETATIVEFLNRWITFSQSIISTLT |
| 55.1 | CMP-321 (ligand, lactam N-32) SGRVQPLVDAPTSSSTKKTQLQLEHLLLDLQEILNGINNYKNPKLTR[Nle]L[hSer][Yn3(8)]KF[Ygp(8)][Nle]PKKATELKHLQCLEEELKPLEEVL[hSer]LAQSKNFHLRPRDLISNINVIVLELKGSETTF[hSer]CEYADETATIVEFLNRWITFSQSIISTLT |

Target: T2, IL-2Rβγ on HEK-Blue IL-2Rβγ reporter …
Assay: cell-based or functional assay

| Average EC50, HEK-Blue IL-2R (CD122+, CD132+) Reporter Assay, intact molecule [nM] | Average EC50, HEK-Blue IL-2R (CD122+, CD132+) Reporter Assay, MMP2 cleaved molecule [nM] | Binder |
| --- | --- | --- |
| 0.591 |  | CMP-301 (ligand, lactam N-31; ends not checked) GPLGLAG[PEG9′]APTSSSTKKTQLQLEHLLLDLQEILNGINNYKNPKLTR[Nle]L[hSer][Yn3″]KF[Ygp″][Nle]PKKATELKHLQCLEEELKPLEEVL[hSer]LAQSKNFHLRPRDLISNINVIVLELKGSETTF[hSer]CEYADETATIVEFLNRWITFSQSIISTLT |
| 0.521 |  | CMP-303 (ligand, bridge N-29; not fully specified (N-terminus, bridges); ends not checked) PLGLAGAPTSSSTKKTQLQLEHLLLDLQEILNGINNYKNPKLTR[Nle]L[hSer][Yn3″]KF[Ygp″][Nle]PKKATELKHLQCLEEELKPLEEVL[hSer]LAQSKNFHLRPRDLISNINVIVLELKGSETTF[hSer]CEYADETATIVEFLNRWITFSQSIISTLT |
| 0.436 |  | CMP-302 (ligand, lactam N-30; ends not checked) GPLGLAGAPTSSSTKKTQLQLEHLLLDLQEILNGINNYKNPKLTR[Nle]L[hSer][Yn3″]KF[Ygp″][Nle]PKKATELKHLQCLEEELKPLEEVL[hSer]LAQSKNFHLRPRDLISNINVIVLELKGSETTF[hSer]CEYADETATIVEFLNRWITFSQSIISTLT |
| 0.34 |  | CMP-304 (ligand, bridge N-29; not fully specified (N-terminus, bridges); ends not checked) PLGLAGAPTSSSTKKTQLQLEHLLLDLQEILNGINNYKNPKLTR[Nle]L[hSer][Yn3(4)]KF[Ygp(4)][Nle]PKKATELKHLQCLEEELKPLEEVL[hSer]LAQSKNFHLRPRDLISNINVIVLELKGSETTF[hSer]CEYADETATIVEFLNRWITFSQSIISTLT |
|  | 0.00646 | CMP-302, MMP2 cleaved (ligand, ends and bridges not checked; also: MMP2 cleaved, ring opened, cut site and remnants not given here) GPLGLAGAPTSSSTKKTQLQLEHLLLDLQEILNGINNYKNPKLTR[Nle]L[hSer][Yn3″]KF[Ygp″][Nle]PKKATELKHLQCLEEELKPLEEVL[hSer]LAQSKNFHLRPRDLISNINVIVLELKGSETTF[hSer]CEYADETATIVEFLNRWITFSQSIISTLT |
|  | 0.0218 | CMP-303, MMP2 cleaved (ligand, ends and bridges not checked; also: MMP2 cleaved, ring opened, cut site and remnants not given here) PLGLAGAPTSSSTKKTQLQLEHLLLDLQEILNGINNYKNPKLTR[Nle]L[hSer][Yn3″]KF[Ygp″][Nle]PKKATELKHLQCLEEELKPLEEVL[hSer]LAQSKNFHLRPRDLISNINVIVLELKGSETTF[hSer]CEYADETATIVEFLNRWITFSQSIISTLT |
|  | 0.00726 | CMP-301, MMP2 cleaved (ligand, ends and bridges not checked; also: MMP2 cleaved, ring opened, cut site and remnants not given here) APTSSSTKKTQLQLEHLLLDLQEILNGINNYKNPKLTR[Nle]L[hSer][Yn3″]KF[Ygp″][Nle]PKKATELKHLQCLEEELKPLEEVL[hSer]LAQSKNFHLRPRDLISNINVIVLELKGSETTF[hSer]CEYADETATIVEFLNRWITFSQSIISTLT |
